The source of these data is patent US8415306B2, “Insulin-like growth factor 1 receptor binding peptides” (Janssen Biotech, Inc., priority 2010, dated 2013).

What is called EC50 is the concentration needed to bring the measured effect to its halfway point. A low value points to higher potency in that assay.

Test [1] deals with T1, sIGF1R (Homo sapiens, UniProt P08069).
T1 construct: hexahistidine (C); purchased R&D Systems
The test can be described thus: ELISA relative binding affinity of PG-peptide fusions for sIGF1R. The conditions noted are these: for EC50: PG-peptide fusion, ELISA on 2 μg/ml coated sIGF1R, one site binding equation. From the text:
The identified IFG1R binding peptides were cloned in-frame to the C-terminus of the protein G IgG domain (PG) in a modified pET17b vector (EMD Chemicals, Gibbstown, N.J.) having a ligation independent cloning site (LIC) to generate PG-peptide fusions. The IgG binding domain of protein G is stable and thus enabled easy purification of the fusion protein from bacterial lysates. The amino acid sequence of the protein G IgG domain used is shown in SEQ ID NO: 31. The PG-peptide fusions were expressed in bacteria upon 1 mM IPTG induction and purified using IgG Sepharose beads (GE Healthcare Life Sciences, Piscataway, N.J.) from the bacterial lysates cleared by centrifugation at 16,000 g, 4° C. for 20 min.
(§1) Relative binding affinities of the PG-peptide fusions for sIGF1R were measured using ELISA. The Kds were determined using GraphPad Prism 4 software with a one site binding equation. 100 μl of 2 μg/ml sIGF1R(R&D Systems, Minneapolis, Minn.) in Dulbecco's Phosphate Buffer Saline (DPBS (−/−)) was coated onto a 96 well Black Maxisorp plates (Nunc, Rochester, N.Y.) overnight at 4° C. The plates were washed with TBST and the wells blocked with 200 μl/well Starting Block T20 (TBS) (Pierce, Rockford, Ill.) for 1 hr, room temperature with 300 rpm shaking. 75 μl/well of purified, serially diluted PG-peptide fusions, starting concentration 40 μM, was added into the wells and incubated for 1 h, room temperature with 300 rpm mixing; the volume was brought up to 100 μl with Starting Block T20. The plates were washed 3× with TBST and then probed with 100 μl/well Peroxidase labeled-Rabbit antibody (1:5000) (Rockland, Gilbertsville, Pa.), washed, and the signal was detected using 100 μl/well POD substrate (Roche, Indianapolis, Ind.). Chemiluminescence was detected using a Molecular Devices M5 plate reader.
(In general: ELISA stands for enzyme-linked immunosorbent assay.)

The target in a further test is insulin receptor (Homo sapiens, UniProt P06213). The test can be described thus: phage lysate binding to insulin receptor (cross-reactivity). How it is done: Total of 384 individual phage lysates from the panning were tested for binding specificity towards sIGF1R in a solid phase phage ELISA. Briefly, 100 μl/well of 5 μg/ml sIGF1R (R&D Systems, Minneapolis, Minn.) was bound to Black Maxisorp Plates (Nunc, Rochester, N.Y.), 25 μl of phage lysate added, and the reaction was detected using anti-M13-HRP antibody (EMD Biosciences, Gibbstown, N.J.) and POD substrate (Roche, Indianapolis, Ind.), and the signal detected using a TEKAN plate reader. […] Positive lysates were defined as clones with a sIGF1R specific signal that was three fold above the background of the negative control. A total of 13 clones with unique peptide sequences were obtained with confirmed binding to the sIGF1R (Table 1). From these 13 clones, 3 (clones 5, 13 and 16) cross-reacted with the insulin receptor.

The test system of test [2] is rat brain microvascular endothelial cell model. The test can be described thus: in vitro BBB model, transcytosis of peptide-AP fusions. Type of test: cell-based. The conditions noted are these: 25 μg peptide-AP fusion in top chamber, detected in bottom chamber at 15 and 30 minute by ELISA. How it is done: Select sIGF1R binding peptides were further characterized in the in vitro blood-brain barrier model, rat brain microvascular endothelial cell model.
Rat Brain capillary endothelial cells were prepared as described (Perriere et al., J. Neurochem. 93:279-289, 2005). Briefly, brains from 6-8 week old male Sprague Dawley rats were rolled on 3 MM chromatography paper to remove the meniges, cut sagitally, and the white matter dissected leaving the cortices, which were then minced thoroughly. The minced cortices were transferred to a 50 ml polypropylene conical tube with 20 ml DMEM supplemented with 39 units/ml DNase I (Worthington, Lakewood, N.J.) and 0.7 mg/ml Collagenase type 2 (Worthington, Lakewood, N.J.) at final concentration and incubated at 37° C. with gentle mixing for 1.25 hrs. After a brief centrifugation the resultant pellet was resuspended in 20 ml 20% BSA (Sigma, St. Louis, Mo.) in DMEM, centrifuged and the microvessel enriched pellet was isolated a digested a second time with 20 ml DMEM supplemented with 39 units/ml DNase 1 and 1 mg/ml Collagenase/Dispase (Roche, Indianapolis, Ind.) at 37° C. for 1 hr. The digestion was briefly centrifuged and the resulting cell pellet was resuspended in 2 ml DMEM and subsequently layered onto the top of a 33% continuous Percoll gradient, centrifuged, and the enriched microvessel fraction was removed and briefly centrifuged a second time. The cell pellet was resuspended in 10 ml complete rat brain microvascular endothelial cell growth media (DMEM, 20% Plasma Derived Serum (PDS), 100 μg/ml Heparin, 2 mM L-Glutamine, 100 U/ml penicillin, 100 μg/ml streptomycin, 0.25 μg/ml amphotericin) and plated onto a 10 cm tissue culture dish for 4 hrs at 37° C., 5% CO2. After 4 hrs cells that remained unattached were pipetted off and counted in a hemacytometer using Trypan Blue. The cells were plated into the top chamber of the Transwells (0.4 μm pore size, diameter 1.12 cm, Corning, Acton, Mass.) treated with 400 μg/ml collagen type IV (Sigma, St. Louis, Mo.) and 100 μg/ml fibronectin (Sigma, St. Louis, Mo.) at a density of 6×10^5 cells/ml, 500 μl per well. 1 ml of growth media was placed into the bottom chamber. Both chambers were supplemented with 4 μg/ml puromycin (Clontech, Mountain View, Calif.) and the plates were incubated at 37° C., 5% CO2 overnight. The next day the media was changed with fresh complete culture media with 4 μg/ml puromycin and the cells were placed back into the incubator overnight. The next day the media was changed with complete culture media and again two days after. Cultures were monitored by eye till they reached 100% confluence, ˜6-7 days after seeding. The developed in vitro BBB model had high transendothelial electrical resistance (>100 ohms-cm^2), measured using Millicell-ERS (Millipore, Billercia, Mass.) and very low Na-Fluorescein permeability (about 1-5×10^−6 cm/s).
25 μg of purified peptide-AP fusions were added to the top chamber of the in vitro BBB model and transcytosed peptide-AP fusions were detected at 15 and 30 minute timepoints in the bottom chamber using ELISA. Briefly, 75 μl of each sample was transferred to plates coated with 5 μg/ml mouse monoclonal anti-bacterial AP antibody (Sigma, St. Louis, Mo.). The plate was incubated for 1 hr, washed, the signal was developed with Attophos Substrate (Roche, Indianapolis, Ind.) according to manufacturer's recommendation, and read using a Molecular Devices M5 plate reader with 440 nm excitation and 550 nm emission.

For test [3], the target named is T1, sIGF1R. The test can be described thus: competition ELISA of PG-peptide fusions with IGF-1 on sIGF1R. The following applies: PG-peptide fusion, IGF-1 400 nM final. Type of test: binding. How it is done: as §1
For competition assays, insulin-like growth factor 1 (IGF-1) (R&D Systems, Minneapolis, Minn.) was added to the Starting Block T20 used to bring the volume up to 100 μl at a concentration of 400 nM final.

In the test with sIGF1R [1], “5 (TGCDFPELCRGCHP; IGF1R binding peptide from pIX library) [Clone 5]” gave an EC50 of 750 nM. Moreover, the “cross-reaction with the insulin receptor” value with insulin receptor is on record as “cross-reacted”. Also, the Transcytosis entry in test [2] is on record as “yes”.
“6 (AECEWPWLTLELCQS; IGF1R binding peptide from pIX library) [Clone 6]” yielded an EC50 with sIGF1R [1] of 1000 nM. Besides, the Transcytosis result in test [2] is on record as “yes”.
“7 (PFCYSGGPLPYPCTY; IGF1R binding peptide from pIX library) [Clone 7]” came in with a concentration for a half-maximal effect (EC50) in the test with sIGF1R [1] of 1800 nM.
With “8 (PVCPSFCYDQYVCPT; IGF1R binding peptide from pIX library) [Clone 8]”, the EC50 with sIGF1R [1] was found to be 1600 nM. In addition, the Transcytosis result in test [2] was “yes”.
The corresponding values for “9 (FTCAVYSLSELDCRD; IGF1R binding peptide from pIX library) [Clone 9]” are 3500 nM and “no”.
“10 (LSCYDPTLRTLYCHV; IGF1R binding peptide from pIX library) [Clone 10]”: the 50% effective concentration (EC50) with sIGF1R [1] turned out to be 4300 nM. That is a single-digit micromolar value.
For “11 (HTCFYPTLMPPELCFD; IGF1R binding peptide from pIX library) [Clone 11]”, the “Competed by IGF-1” value with sIGF1R [3] was “yes”. Also, the concentration for a half-maximal effect (EC50) with sIGF1R [1] was 1200 nM. Besides, the Transcytosis entry in test [2] is “no”.
As to “12 (SNCPPLDMRLTELCVM; IGF1R binding peptide from pIX library) [Clone 12]”, in the test with sIGF1R [1], the EC50 turned out to be 1800 nM. Further, the Transcytosis result in test [2] is “yes”.
As for “13 (WHCTPLTQIADPGSIIHILECTV; IGF1R binding peptide from pIX library) [Clone 13]”, the “Competed by IGF-1” value in the test with sIGF1R [3] is listed as “yes”. Besides, the EC50 with sIGF1R [1] was greater than 50000 nM. Besides, in the test with insulin receptor, the “cross-reaction with the insulin receptor” value is “cross-reacted”. For the same substance, the Transcytosis entry in test [2] is “no”.
Consider “14 (VECDTPSITFSPGLEALFWNTCSP; IGF1R binding peptide from pIX library) [Clone 14]”, for which the “Competed by IGF-1” value with sIGF1R [3] is on record as “yes”. The EC50 in the test with sIGF1R [1] was found to be 850 nM. The Transcytosis entry in test [2] is reported as “no”.
In turn, “15 (MTCAWHTLHTDPGLTPQLTLPCIY; IGF1R binding peptide from pIX library) [Clone 15]” came in with an EC50 with sIGF1R [1] of 2600 nM.
As for “16 (AGCPSPMPPVDPGFYSAIVQLCRE; IGF1R binding peptide from pIX library) [Clone 16]”, in the test with sIGF1R [3], the “Competed by IGF-1” value is on record as “yes”. The substance further had an EC50 with sIGF1R [1] of 8200 nM. Also, the “cross-reaction with the insulin receptor” value in the test with insulin receptor was “cross-reacted”. The Transcytosis result in test [2] was “yes”.
Take “17 (DDIDEFLHQLHNLVNNVH; IGF1R binding peptide from pIX library) [Clone 17]”: the “Competed by IGF-1” value in the test with sIGF1R [3] is on record as “yes”. In addition, the “binding curve shape (binding profile)” value with sIGF1R [1] (PG-peptide fusion on sIGF1R) is on record as “bellshaped”. Besides, in test [2], the Transcytosis entry is on record as “no”.
